Measured values reported in paper doi:10.1101/2023.03.21.533612.

Biological target: NStr-M35_S, M35 short version (aa 2-452) with N-terminal Twin-Strep tag and TEV cleavage sequence (murine cytomegalovirus (MCMV))
Assay: SEC-MALS

Substance: NStr-M35_S, M35 short version (aa 2-452) with N-terminal Twin-Strep tag and TEV cleavage sequence (domain or fragment)
- stoichiometry N: 2
